Laboratory results published in publication PMC4915627, “Staphylococcal Bap Proteins Build Amyloid Scaffold Biofilm Matrices in Response to Environmental Signals” (PLoS Pathogens, 2016).

B1: purified recombinant Bap_B protein (region B of Bap of S. aureus V329, amino acids 361-819, N-terminal hexahistidine tag) (domain or fragment)
chain: QKSLGYTDNYTFASMLFDPGKLDSDDALNSNIIPFDLHSYMSGANSGNRYKIDLKLDPIIAEHVTKISANPSGSNKPVEFVRNKDENGNLTDTWEVNFIRANDGLFGGAEILSQYTAKNGKIELDDTVGNIISNAGNLSNNKLNHQVFVRDSRENKIVRTSESSGYFLTKADDDLVNLENNVSTENNNAFKASSGSATYNENVGEFGGILIDQQIMKNGIFSYSKTKANQWAYNYQIDKDLLPYIEGVELHQYDYKGLNGFDKNYDAKNKVADLTIDEVGNGTITSDNLNKLIEFNNALPETVGVRVVLKLNKSVNNILTKDAKYDSEGNLIRETTKQKEDFTFAGYLTDSKGALINNTLGTSTLALQDYDKDGLLDRYERQLSLSDAENEDTDGDGKNDGDEVVNYKTSPLVGKPQAADITTEDTVVSGSVPLKEGAATQTAKVINAEGTTVGTATVN
notes: Biofilm associated protein Bap of Staphylococcus aureus V329, region B, amino acids 361-819 (1377 bp fragment cloned in pET46-Ek/LIC); The results give domain B as residues 362-819 (chimeras); the methods give 361-819 for the recombinant protein; also called B domain of Bap
B2: Bap_B amyloid peptide I (aa 487 to 496) (peptide)
peptide: TVGNIISNAG
notes: Bap of Staphylococcus aureus, stretch of region B, aa 487 to 496; source: synthetic peptide, bought: CASLO ApS
B3: Bap_B amyloid peptide II (aa 579 to 584) (peptide)
peptide: GIFSYS
notes: Bap of Staphylococcus aureus, stretch of region B, aa 579 to 584; also called GIFSYS; source: synthetic peptide, bought: CASLO ApS

Columns and labels:
[1] = target: the molecule itself; test: thioflavin-T fluorescence; fresh rBap_B at 0.01-0.036 mg/ml, 25 μM ThT, 25°C, pH 4.5, 5 min
[2] = target: the molecule itself; test: gel formation + electron microscopy + thioflavin-T fluorescence; synthetic peptide at 10 μM, pH 4.5, citrate buffer, room temperature (25°C), four weeks

Row | Protein | binding result [1] | binding result [2]
1 | B1 | binds | 
2 | B2 |  | binds
3 | B3 |  | binds
